Assay [1] addresses mouse glucocorticoid-induced tumor necrosis factor receptor (mGITR), expressed on the cell surface (mouse) (UniProt O35714). Briefly: flow cytometry on Th1 clone R2.2; isotype control background. For orientation: Flow cytometry measures light scatter and fluorescence of single cells or particles in a stream.
Assay [2] shares this target. Briefly: flow cytometry on Th2 clone R2.4; isotype control background.
The target of assay [3] is mouse glucocorticoid-induced TNF receptor ligand (mGITRL), expressed on the cell surface (mouse) (UniProt Q7TS55). Briefly: flow cytometry, peritoneal cells gated on F4/80+; isotype control background.
Assay [4] has the same target. Briefly: flow cytometry, spleen cells gated on B220+ B cells; isotype control background.
Assay [5] shares this target. Briefly: flow cytometry, spleen cells gated on F4/80+ macrophages; isotype control background.
Assay [6] concerns the target T1, mouse glucocorticoid-induced tumor necrosis factor receptor (mGITR), expressed on the cell surface (mouse, UniProt O35714 20-228).
T1 sequence (looked up): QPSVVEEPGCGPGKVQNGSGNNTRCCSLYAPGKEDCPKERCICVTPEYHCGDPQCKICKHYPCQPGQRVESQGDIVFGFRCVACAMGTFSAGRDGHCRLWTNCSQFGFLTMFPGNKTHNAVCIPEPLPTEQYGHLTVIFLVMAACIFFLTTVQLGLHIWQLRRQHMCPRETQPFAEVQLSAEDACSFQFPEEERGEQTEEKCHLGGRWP
Briefly: cell-based or functional assay.

Consider “isotype control antibody (rat anti-canine CD8 antibody, IgG1)”, for which the Median fluorescence intensity (MFI) was determined as 35.2 in assay [1], 50.5 in assay [2], 7.7 in assay [4] and 25.4 in assay [5]. Besides, in assay [3], the MFI came to 255.

B1: mouse glucocorticoid-induced TNF receptor ligand (mGITRL), expressed on the cell surface (ligand)
chain: MEEMPLRESSPQRAERCKKSWLLCIVALLLMLLCSLGTLIYTSLKPTAIESCMVKFELSSSKWHMTSPKPHCVNTTSDGKLKILQSGTYLIYGQVIPVDKKYIKDNAPFVVQIYKKNDVLQTLMNDFQILPIGGVYELHAGDNIYLKFNSKDHIQKNNTYWGIILMPDLPFIS
As for B1, the “Luciferase activity (NF-kB reporter plasmid), 48-h incubation” value in assay [6] came out at 6 fold.

The values above are taken from patent US20090181459A1 (published 2009).
